Experimental data published in the RNAGym collection of RNA variant scans (doi:10.1073/pnas.2313332121).

B1: TPR t1 (parent)
chain: GACCAAUCUGCCCUCAGAGCUCGAGAACAUCUUCGGAUGCAGAGGAGGCAGGCUUCGGUGGCGCGAUAGCGCCAACGUCCUCAACCUCCAAUGCAUCCCACCACAUGAUGAUGCCUGAAGAGCCUUGGUUUUUUG

Variants of: B1
Experiment: polymerase ribozyme fitness, log enrichment relative to wild type (log ratio); higher = more active; in vitro selection for triplet polymerase activity
Outline: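 To select mutant libraries of each subunit of a heterodimeric triplet polymerase ribozyme, built by PCR and transcribed, each was annealed with a biotinylated primer, partner subunit and triplets, then incubated frozen at −7 °C. Extended constructs were gel-excised, captured on streptavidin beads and amplified by RT-PCR, in one round carried out in triplicate. Illumina sequencing of input and output libraries kept genotypes with ≥10 input reads and ≥1 read per output. Fitness is the base-2 logarithm of genotype enrichment relative to wild-type enrichment, from inverse-variance-weighted replicate averages.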

| Variant | polymerase ribozyme fitness (log ratio) |
| --- | --- |
| A27G C64U C73U | -2.48 |
| A27C U67G G107A U109A C123G C124G | -6.73 |
| C22G U78A U87A C88A C102A | -5.54 |
| A24U U32A G48C C70A A74U U81A A121G U125G | -7.22 |
| G25A G45U C88G A90G C99G C115A | -7.43 |
| A26C U106A | -3.34 |
| G23A A26G | -4.52 |
| C22U G60A | -3.85 |
| A27G G51A U78C | -3.93 |
| A26G U59A C62A G63A | -5.96 |
| A27C G47A U54G G57U | -1.6 |
| A24G G110A U116G C124A | -6.51 |
| G25A A26U A43G G61C U78A C102U G110C | -7.68 |
| A24U C56U | -4.09 |
| G23U A90U | -6.86 |
| A26G G48A C53G C89U A91C | -4.13 |
| A24G C40U C62G | -3.54 |
| A24U A119G | -6.17 |
| C22U G120U | -3.75 |
| G25C C34G C70A C104G G110U U116G | -8.24 |
| C22G C101A | -3.82 |
| G25A C70A | -6.74 |
| A26U C40U | -4.02 |
| A26U C40A | -4.26 |

| Variant | polymerase ribozyme fitness (log ratio) |
| --- | --- |
| A26U U32C C94A | -4.33 |
| C22G G57C C89A A95G A111U A121U | -4.42 |
| A24G G36U G93C U112A | -5.3 |
| A26G C70U C94G A103G G117C | -7.12 |
| A27U A29G A83C | -2.59 |
| A26U A50C C56A C124A | -2.3 |
| A27G C53G | -1.84 |
| A27C U55G G57C A111U G122A | -5.04 |
| A24C U32C C73A U96G A111U | -7.08 |
| A27C C72G U112C G120C U126C U131A | -4.66 |
| A26C U112C | -4.51 |
| C22G C56U A105U U112C | -2.05 |
| G25A C31G U32G C40U C72U U106C A108U C124A | -7.62 |
| A27C G47U C73U G77U C86G C123A U126A | -4.61 |
| G23U G69C G120A | -5.9 |
| G23A A26G C104A | -5.12 |
| C22G C97A | -5.26 |
| A24U C124G | -5.19 |
| A24U C124U | -5.45 |
| A24C C40U G42A C73A A95U C101U G120A U130C | -7.09 |
| C22G G35U A121C U132C | -4.9 |
| C22U C56G G60A | -5.5 |
| G23C A26G C124U | -5.18 |
| G23C A26G C98U A105G C114G | -7.07 |

| Variant | polymerase ribozyme fitness (log ratio) |
| --- | --- |
| G23U G63C | -6.19 |
| A24G A119G A121U | 1.12 |
| C22G C82A C94G A111U | -4.76 |
| A27C A74C | -3.6 |
| A26U C94U C123G U132C | -1.68 |
| G23A G51A A111G | -6 |
| A26G C49U C64U U87A | -3.25 |
| A27G C72U | -1.76 |
| A26G A66C G113C U126G | -6.73 |
| A27C U54A C64A G113A | -5.44 |
| A27C C49U | -4.08 |
| C22U G69U | -2.26 |
| G23C G69A G120A A121U C123U U129C | -6.52 |
| A26G G42C U59C G113A | -5.32 |
| A26G C94G A105C C123G | -5.27 |
| A24U G39A | -7.92 |
| G23U G120A | -6.57 |
| C22G G47C U59C U92G C97A A111G | -6.83 |
| A24U G45A G60A C115U | -6.73 |
| A26C G45C U87C | -6.66 |
| A24G U131A | -2.25 |
| C22U A91U U112G | -6.06 |
| A26U C79G C124U | -4.91 |
| G23U C124A | -4.31 |

| Variant | polymerase ribozyme fitness (log ratio) |
| --- | --- |
| G25U G69U | -4.36 |
| C22G G47U A111C | -5.82 |
| G25U U33A A68U A111C G127C | -6.82 |
| A27U A90U | -5.37 |
| A26C C88U | -5.08 |
| A24G G113A | -3.26 |
| A24G U38A U55A | -2.85 |
| A26U G120U | -3.12 |
| A26G C73A A74U U78A | -2.49 |
| A27U A50U | -4.65 |
| A26G G44U C56U G120U U130A | -2.98 |
| A26U U78C | -2.92 |
| G25U C31G G42A A46U C70U G110U G128U | -6.32 |
| A24G C72U C88A G93U | -5.29 |
| A27G C56A A74C U87A U112A | -0.205 |
| A26C A43G G69A U78G C82G C115A C123U U130G | -6.36 |
| G23C C49G G51C G61U G117U G128C | -6.88 |
| A27U A119C G120A | -2.76 |
| A26G G120U | -1.88 |
| A26C C97U | -5.92 |
| A24G A46U C62G | -5.81 |
| A26C C73A U81C C88A A108G C114G A119U | -6.8 |
| A24G G61U | -1.44 |
| A26U C70U U78C | -4.92 |

| Variant | polymerase ribozyme fitness (log ratio) |
| --- | --- |
| C22U A26U C53U G69C A119G | -6.14 |
| A24G C115A | -1.25 |
| A26U G117A | -5.38 |
| C22U U106G C115U | -6.69 |
| G25U G35A A41U U112G | -7.04 |
| C22G U38G | -4.45 |
| A27C C72A C79U G113U | -6.86 |
| C22U U131A | -3.95 |
| A26G A46C G52C | -4.5 |
| G25U G47U | -6.74 |
| C22U C101A G122A | -6.14 |
| G25U G69U C102U A121U | -5.66 |
| G25U C34G G36C C97A U112G | -6.79 |
| A24U C94U A103U G110C G120C U131A | -5.54 |
| A27G C49U C123A | -1.76 |
| C22U C70U | -4.14 |
| A26U G60A C97U G110U | -5.7 |
| G23U A26G A37U G69U | -5.18 |
| G25A C31U G63U G77U G117A C124U | -7.34 |
| C22U G52A A84C C104U | -5.74 |
| A24G C88U A95C C124A U133A | -0.316 |
| A27G A46G C72U | -3.52 |
| A24U G117U | -6.09 |
| A26G G63C | -1.65 |

| Variant | polymerase ribozyme fitness (log ratio) |
| --- | --- |
| G25A A121C | -4.05 |
| A27U A37G G48A C72G A83U U130A | -4.93 |
| C22U G45A A83C | -5.99 |
| C22U G51A | -4.81 |
| G25U C72U C88A U109C A119U C123U | -8.09 |
| A26U G69C | -4.28 |
| A24G G52A | -1.78 |
| A27C C72A | -3.22 |
| A26G C56U | -1.28 |
| A26G G45C G48U C88U | -5.02 |
| A27G G51U G61A U92A | -6.49 |
| A27G G39U C73U G110C | -3.91 |
| A26U G52A | -4.18 |
| A24G U54A A68U G71A U112A | -8.22 |
| G25A C64U | -4.8 |
| G23C C70G | -7.47 |
| A24G C88G C123A U129A | -4.43 |
| A27C G60A G110A | -6.05 |
| A26U A84C C102U C115A U133G | -6.15 |
| A24C G51U G61C C79A C102A G110U | -6.53 |
| A27G C115U | -4.58 |
| A27G A105C | -3.41 |
| A26G A37U C123U U133A | -2.78 |
| A26U G48A C72U | -3.67 |

| Variant | polymerase ribozyme fitness (log ratio) |
| --- | --- |
| C22U C56G U78A | -3.95 |
| C22G G48A | -3.33 |
| A27U A29G G63C G127C | -6.04 |
| G25C C97U C104A U109G | -6.31 |
| A27G C56U U96A U109G C115G C124U | -7.02 |
| A26G C86U | -2.13 |
| A27C C76A | -5.92 |
| A26U C62G C124A | -3.42 |
| C22U G39A C64U C99U U130C | -6.29 |
| G23U U112G C114U C124G U125C | -7.12 |
| A26U U54C | -2.99 |
| A24G C85A U96A | -3.35 |
| A24C G48C U87A C97U C124A | -7.52 |
| A26G G44C | -2.38 |
| A27C G61C | -5.63 |
| A27U A68U A90C G93A C101G G110U | -7.92 |
| A26G G45A | -2.64 |
| G23A U106A | -3.44 |
| G25A C124G | -5.14 |
| G25A C124U | -5.31 |
| A26C C82A | -5.2 |
| A27G C28U C56U U81A A83U A121C | -3.5 |
| A24G G63C G71U C123G | -5.78 |
